{
  "source": "paper PMC5780253",
  "about": "(Biochimica et biophysica acta, 2017)",
  "target": "the molecule itself",
  "assay": "SDS-PAGE and Western blot of cell lysate without cross-linker",
  "data": [
    {"protein": "human apical sodium-dependent bile acid transporter, wild type (wt-hASBT) (natural protein, UniProt Q12908 1-348, looked up, N-glycosylated at Asn10 (glycosylated ~41 kDa and non-glycosylated ~37 kDa forms both seen)) MNDPNSCVDNATVCSGASCVVPESNFNNILSVVLSTVLTILLALVMFSMGCNVEIKKFLGHIKRPWGICVGFLCQFGIMPLTGFILSVAFDILPLQAVVVLIIGCCPGGTASNILAYWVDGDMDLSVSMTTCSTLLALGMMPLCLLIYTKMWVDSGSIVIPYDNIGTSLVSLVVPVSIGMFVNHKWPQKAKIILKIGSIAGAILIVLIAVVGGILYQSAWIIAPKLWIIGTIFPVAGYSLGFLLARIAGLPWYRCRTVAFETGMQNTQLCSTIVQLSFTPEELNVVFTFPLIYSIFQLAFAAIFLGFYVAYKKCHGKNKAEIPESKENGTEPESSFYKANGGFQPDEK", "values": [
      {"measurement": "stoichiometry N", "result": 2}
    ]}
  ]
}
